Measurements: publication PMC10031729, “Interaction of methionine sulfoxide reductase B5 with SlMYC2 stimulates the transcription of MeJA-mediated autophagy-related genes in tomato fruit”

B1: SlATG18h mutant probe (G/E-box to TTTTTTTT) (dsDNA)
DNA 1: ATTCCATATATTTTTTTTCTCCGTTTCATC
DNA 2: GATGAAACGGAGAAAAAAAATATATGGAAT
B2: SlATG18a promoter probe (dsDNA)
DNA 1: GGATTGGATCTACACGTGGCATGTAGGATA
DNA 2: TATCCTACATGCCACGTGTAGATCCAATCC
B3: SlATG18a mutant probe (G/E-box to TTTTTTTT) (dsDNA)
DNA 1: GGATTGGATCTTTTTTTTTCATGTAGGATA
DNA 2: TATCCTACATGAAAAAAAAAGATCCAATCC
B4: SlATG13a promoter probe (dsDNA)
DNA 1: GAGAACACTTGCTATGTCACGTGCTAAATT
DNA 2: AATTTAGCACGTGACATAGCAAGTGTTCTC
B5: SlATG13b promoter probe (dsDNA)
DNA 1: TTTCTTTGTTTCACACGTTCTTTTTACTTC
DNA 2: GAAGTAAAAAGAACGTGTGAAACAAAGAAA
B6: SlATG13a mutant probe (G/E-box to TTTTTTTT) (dsDNA)
DNA 1: GAGATTTTTTTTTATGTTTTTTTTTAAATT
DNA 2: AATTTAAAAAAAAACATAAAAAAAAATCTC
B7: SlATG13b mutant probe (G/E-box to TTTTTTTT) (dsDNA)
DNA 1: TTTCTTTGTTTCTTTTTTTTTTTTTACTTC
DNA 2: GAAGTAAAAAAAAAAAAAGAAACAAAGAAA
B8: SlATG18h promoter probe (dsDNA)
DNA 1: ATTCCATATAACACATGTCTCCGTTTCATC
DNA 2: GATGAAACGGAGACATGTGTTATATGGAAT

Assays:
[1] = molecular target: T1, MBP-SlMYC2 (Solanum lycopersicum, UniProt A0A3Q7HRZ6 1-689); experiment: competition; unlabeled mutant competitor vs SlATG18h probe; Chemiluminescent EMSA kit (Beyotime); buffer, salt, pH and temperature not stated; settings: protein: recombinant; tags: N-terminal MBP; chain copies: 2
[2] = molecular target: T1, MBP-SlMYC2; experiment: EMSA; Chemiluminescent EMSA kit (Beyotime); buffer, salt, pH and temperature not stated; settings: protein: recombinant; tags: N-terminal MBP; chain copies: 2; label: biotin
[3] = molecular target: T1, MBP-SlMYC2; experiment: competition; unlabeled mutant competitor vs SlATG18a probe; Chemiluminescent EMSA kit (Beyotime); buffer, salt, pH and temperature not stated; settings: protein: recombinant; tags: N-terminal MBP; chain copies: 2
[4] = molecular target: T1, MBP-SlMYC2; experiment: competition; unlabeled mutant competitor vs SlATG13a probe; Chemiluminescent EMSA kit (Beyotime); buffer, salt, pH and temperature not stated; settings: protein: recombinant; tags: N-terminal MBP; chain copies: 2
[5] = molecular target: T1, MBP-SlMYC2; experiment: competition; unlabeled mutant competitor vs SlATG13b probe; Chemiluminescent EMSA kit (Beyotime); buffer, salt, pH and temperature not stated; settings: protein: recombinant; tags: N-terminal MBP; chain copies: 2

T1 sequence (A0A3Q7HRZ6 whole entry): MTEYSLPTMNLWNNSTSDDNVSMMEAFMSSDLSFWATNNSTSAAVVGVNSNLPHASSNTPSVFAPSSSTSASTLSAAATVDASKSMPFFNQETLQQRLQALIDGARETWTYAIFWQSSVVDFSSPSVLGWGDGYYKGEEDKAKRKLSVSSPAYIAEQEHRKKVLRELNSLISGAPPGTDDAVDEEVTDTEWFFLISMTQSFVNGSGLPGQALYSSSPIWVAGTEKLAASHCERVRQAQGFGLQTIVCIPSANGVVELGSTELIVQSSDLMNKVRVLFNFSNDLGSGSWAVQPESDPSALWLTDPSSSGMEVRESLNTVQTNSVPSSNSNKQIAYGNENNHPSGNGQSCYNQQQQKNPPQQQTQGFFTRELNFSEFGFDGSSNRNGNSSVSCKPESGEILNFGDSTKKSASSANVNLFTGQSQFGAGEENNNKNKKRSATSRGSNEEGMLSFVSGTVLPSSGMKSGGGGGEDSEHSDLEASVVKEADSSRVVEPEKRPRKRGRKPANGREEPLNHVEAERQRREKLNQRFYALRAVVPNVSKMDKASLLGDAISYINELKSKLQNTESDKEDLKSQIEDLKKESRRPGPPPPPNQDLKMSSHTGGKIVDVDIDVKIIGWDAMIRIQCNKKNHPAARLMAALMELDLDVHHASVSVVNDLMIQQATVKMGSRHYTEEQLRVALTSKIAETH

Row | Binder | binding result [2] | further results
1 | B1 | – | binding result [1]: no binding
2 | B2 | binds | –
3 | B3 | – | binding result [3]: no binding
4 | B4 | binds | –
5 | B5 | binds | –
6 | B6 | – | binding result [4]: no binding
7 | B7 | – | binding result [5]: no binding
8 | B8 | binds | –
